# Where a chain is given by its changes, count along the chain named. In names and notes the source's numbering stands. Several values for one entry are separate records, joined by “and”; a condition that tells them apart may be missing. Equal entries are not always repeated.
# B1: KB001 mouse Fab variant VL Y97F (Fab, V domains shown)
# VH: EVQLKQSGPGLVAPSQSLSITCTVSGFSLSIYSVHWVRQPPGKGLEWLGMIWGGGSSDYNSALKSRLSISKDNSKSQVFLKMNSLQTDDTAMYYCARNGNFYAMDYWGQGTSVTVSS
# VL: QIVLTQSPAIMSASLGERVTMTCTASSSVSSSFLHWYQQKPGSSPQLWIYSTSNLASGVPARFSGSGSGTSYSLTISSMEAEDAATYYCHQYHHSPFIYTFGGGTKLEIK
# B2: KB001 mouse Fab variant VL Y97V (Fab, V domains shown)
# VH: B1 VH
# VL: B1 VL with F97V
# B3: KB001 mouse Fab variant VL Y97L (Fab, V domains shown)
# VH: B1 VH
# VL: B1 VL with F97L
# B4: KB001 mouse Fab variant VL I98L (Fab, V domains shown)
# VH: B1 VH
# VL: B1 VL with F97Y, I98L
# B5: KB001 mouse Fab variant VL I98V (Fab, V domains shown)
# VH: B1 VH
# VL: B1 VL with F97Y, I98V
# B6: KB001 mouse Fab variant VL I98R (Fab, V domains shown)
# VH: B1 VH
# VL: B1 VL with F97Y, I98R
# B7: KB001 mouse Fab variant VL I98M (Fab, V domains shown)
# VH: B1 VH
# VL: B1 VL with F97Y, I98M
# B8: KB001 mouse Fab variant VL T100I (Fab, V domains shown)
# VH: B1 VH
# VL: B1 VL with F97Y, T100I
# B9: KB001 mouse Fab variant VL T100P (Fab, V domains shown)
# VH: B1 VH
# VL: B1 VL with F97Y, T100P
# B10: KB001 mouse Fab variant VL T100V (Fab, V domains shown)
# VH: B1 VH
# VL: B1 VL with F97Y, T100V
# B11: KB001 parental mouse Fab FASEBA variant VH K64H (Fab, V domains shown)
# VH: B1 VH with K64H
# VL: B1 VL with F97Y
# B12: KB001 parental mouse Fab FASEBA variant VH K64G (Fab, V domains shown)
# VH: B1 VH with K64G
# VL: B1 VL with F97Y
# B13: KB001 parental mouse Fab FASEBA variant VH K64Q (Fab, V domains shown)
# VH: B1 VH with K64Q
# VL: B1 VL with F97Y
# B14: KB001 parental mouse Fab FASEBA variant VH K64D (Fab, V domains shown)
# VH: B1 VH with K64D
# VL: B1 VL with F97Y
# B15: KB001 parental mouse Fab FASEBA variant VH K64L (Fab, V domains shown)
# VH: B1 VH with K64L
# VL: B1 VL with F97Y
# B16: KB001 parental mouse Fab FASEBA variant VH K64M (Fab, V domains shown)
# VH: B1 VH with K64M
# VL: B1 VL with F97Y
# B17: KB001 parental mouse Fab FASEBA variant VH K64E (Fab, V domains shown)
# VH: B1 VH with K64E
# VL: B1 VL with F97Y
# B18: KB001 parental mouse Fab FASEBA variant VH S65H (Fab, V domains shown)
# VH: B1 VH with S65H
# VL: B1 VL with F97Y
# B19: KB001 parental mouse Fab FASEBA variant VH S65Y (Fab, V domains shown)
# VH: B1 VH with S65Y
# VL: B1 VL with F97Y
# B20: KB001 parental mouse Fab FASEBA variant VH S65P (Fab, V domains shown)
# VH: B1 VH with S65P
# VL: B1 VL with F97Y
# B21: KB001 parental mouse Fab FASEBA variant VH S65R (Fab, V domains shown)
# VH: B1 VH with S65R
# VL: B1 VL with F97Y
# B22: KB001 parental mouse Fab FASEBA variant VH S65F (Fab, V domains shown)
# VH: B1 VH with S65F
# VL: B1 VL with F97Y
# B23: KB001 parental mouse Fab FASEBA variant VH S65L (Fab, V domains shown)
# VH: B1 VH with S65L
# VL: B1 VL with F97Y
# B24: KB001 parental mouse Fab FASEBA variant VH S65G (Fab, V domains shown)
# VH: B1 VH with S65G
# VL: B1 VL with F97Y
# B25: KB001 parental mouse Fab FASEBA variant VH S65T (Fab, V domains shown)
# VH: B1 VH with S65T
# VL: B1 VL with F97Y
# B26: KB001 parental mouse Fab FASEBA variant VH G99F (Fab, V domains shown)
# VH: B1 VH with G99F
# VL: B1 VL with F97Y
# B27: KB001 parental mouse Fab FASEBA variant VH G99S (Fab, V domains shown)
# VH: B1 VH with G99S
# VL: B1 VL with F97Y
# B28: KB001 parental mouse Fab FASEBA variant VH G99N (Fab, V domains shown)
# VH: B1 VH with G99N
# VL: B1 VL with F97Y
# B29: KB001 parental mouse Fab FASEBA variant VH G99A (Fab, V domains shown)
# VH: B1 VH with G99A
# VL: B1 VL with F97Y
# B30: KB001 parental mouse Fab FASEBA variant VH G99Y (Fab, V domains shown)
# VH: B1 VH with G99Y
# VL: B1 VL with F97Y
# B31: KB001 parental mouse Fab FASEBA variant VH G99C (Fab, V domains shown)
# VH: B1 VH with G99C
# VL: B1 VL with F97Y
# B32: KB001 parental mouse Fab FASEBA variant VH N100P (Fab, V domains shown)
# VH: B1 VH with N100P
# VL: B1 VL with F97Y
# B33: KB001 parental mouse Fab FASEBA variant VH N100I (Fab, V domains shown)
# VH: B1 VH with N100I
# VL: B1 VL with F97Y
# B34: KB001 parental mouse Fab FASEBA variant VH N100S (Fab, V domains shown)
# VH: B1 VH with N100S
# VL: B1 VL with F97Y
# B35: KB001 parental mouse Fab FASEBA variant VH N100L (Fab, V domains shown)
# VH: B1 VH with N100L
# VL: B1 VL with F97Y
# B36: KB001 parental mouse Fab FASEBA variant VH N100A (Fab, V domains shown)
# VH: B1 VH with N100A
# VL: B1 VL with F97Y
# B37: KB001 parental mouse Fab FASEBA variant VH N100F (Fab, V domains shown)
# VH: B1 VH with N100F
# VL: B1 VL with F97Y
# B38: KB001 parental mouse Fab FASEBA variant VH N100C (Fab, V domains shown)
# VH: B1 VH with N100C
# VL: B1 VL with F97Y
# B39: KB001 parental mouse Fab FASEBA variant VH N100G (Fab, V domains shown)
# VH: B1 VH with N100G
# VL: B1 VL with F97Y
# B40: KB001 parental mouse Fab FASEBA variant VH N100E (Fab, V domains shown)
# VH: B1 VH with N100E
# VL: B1 VL with F97Y
# Biological target: HRgpA-6H (Porphyromonas gingivalis) (UniProt P28784)
# Test: ELISA on coated HRgpA-6H, OD relative to parental Fab
row,Binder,Ratio OD(Variant)/OD(WT)
1,B1,0.951 fold and 0.958 fold
2,B2,0.839 fold
3,B3,0.937 fold
4,B4,0.955 fold
5,B5,0.951 fold and 0.958 fold and 0.899 fold
6,B6,0.83 fold and 0.825 fold
7,B7,0.833 fold
8,B8,0.942 fold
9,B9,0.879 fold
10,B10,0.881 fold and 0.818 fold

# Biological target: HRgpA-6H (Porphyromonas gingivalis) (UniProt P28784)
# Test: ELISA, FASEBA Fab supernatant on coated HRgpA-6H
row,Binder,OD450 nm
1,B1,0.75 and 0.756
2,B2,0.662
3,B3,0.739
4,B4,0.836
5,B5,0.832 and 0.838 and 0.787
6,B6,0.726 and 0.722
7,B7,0.729
8,B8,0.493
9,B9,0.46
10,B10,0.461 and 0.428

# Biological target: HRgpA-6H (Porphyromonas gingivalis) (UniProt P28784)
# Test: ELISA, FASEBA screening, coated HRgpA-6H; variant OD over parental WT Fab OD
row,Binder,Ratio OD(Variant)/OD(WT)
1,B11,0.953 and 0.975 and 0.883
2,B12,0.981
3,B13,0.954
4,B14,0.944
5,B15,0.803
6,B16,0.948
7,B17,0.954
8,B18,0.995 and 0.927
9,B19,0.875
10,B20,0.984
11,B21,0.96
12,B22,0.895
13,B23,0.88
14,B24,0.998
15,B25,0.918
16,B26,0.967
17,B27,0.965 and 0.927 and 0.966
18,B28,0.802 and 0.876
19,B29,0.928
20,B30,0.965
21,B31,0.974
22,B32,0.894
23,B33,0.94 and 0.983
24,B34,0.943 and 0.996 and 0.95
25,B35,0.965 and 0.869 and 0.932
26,B36,0.955
27,B37,0.92
28,B38,0.812
29,B39,0.908 and 0.961
30,B40,0.972

# Biological target: HRgpA-6H (Porphyromonas gingivalis) (UniProt P28784)
# Test: ELISA, FASEBA screening, coated HRgpA-6H 0.0625 ug/ml
row,Binder,OD450 nm
1,B11,0.788 and 0.806 and 0.73
2,B12,0.811
3,B13,0.789
4,B14,0.781
5,B15,0.664
6,B16,0.784
7,B17,0.789
8,B18,0.823 and 0.767
9,B19,0.724
10,B20,0.814
11,B21,0.794
12,B22,0.74
13,B23,0.728
14,B24,0.825
15,B25,0.759
16,B26,0.771
17,B27,0.769 and 0.739 and 0.77
18,B28,0.639 and 0.698
19,B29,0.74
20,B30,0.769
21,B31,0.776
22,B32,0.757
23,B33,0.796 and 0.833
24,B34,0.799 and 0.844 and 0.805
25,B35,0.817 and 0.736 and 0.789
26,B36,0.809
27,B37,0.779
28,B38,0.688
29,B39,0.769 and 0.814
30,B40,0.823

# Source: patent publication US20240400654A1
